Broadly, the EC50 is the concentration needed to bring the measured effect to its halfway point.

Assay [1] addresses T1, human GPC3 on cells (CHO-human GPC3 stably transfected cells; HepG2 tumor cells) (human, UniProt P51654 25-554).
T1 construct: whole, on cells; also called Human GPC3-CHO
Description: flow cytometry on HepG2 cells. The procedure:
(§1) CHO-human GPC3, CHO-Cynomolgus monkey GPC3 stably transfected cells or human hepatocellular carcinoma HepG2 tumor cells in logarithmic growth phase were taken. After blocking, the cells were adjusted to 5×10⁵ cells/ml, and 100 μl/well cell suspension was added to 96-well U-shaped plate and centrifuged at 300 g for 5 min. The supernatant was discarded, 100 μL of gradient diluted antibody (with a starting concentration of 1800 nM, 3-fold dilution, 10 gradients) was added to each well, and incubated at 4° C. for 60 min. 50 μL/well Alexa Fluro647 labeled goat anti-human IgG Fc (1:300 dilution) were added to the secondary antibody, incubated on ice for 20 min, added with 50 μL/well PI solution (1:300) after washing once, incubated for 5 min, and flow cytometer was used to make detection.

The target of assay [2] is T2, human CD3 on T cells (Jurkat cells; human peripheral blood CD4+ and CD8+ T-cells) (human, UniProt P07766 23-207).
T2 construct: whole, on cells; also called CD4T; CD4 + T
In words: flow cytometry on Jurkat cells. As for the experimental part:
The cells were adjusted to 5×10^5 cells/mL with 4% calf serum, 100 μL/well was added to 96-well U-plate, 300 g was centrifuged to removed the supernatant, 100 μL/well of gradient diluted antibody (initial concentration: 1800 nM, 3-fold dilution, 10 gradients) was added and incubated at 4° C. for 60 min. 50 μL/well Alexa Fluro647-labeled goat anti-human IgG Fc (1:300 dilution) was added to the secondary antibody and incubated on ice for 20 min. 50 μL/well PI was added after washing once, incubated for 5 min, and detected with flow cytometer (BD C6).
(In general: A flow cytometer gives signals particle by particle.)

The target of assay [3] is T3, cynomolgus monkey GPC3 on CHO stably transfected cells (cynomolgus monkey, UniProt A0A2K5VK50 24-553).
T3 construct: whole, on cells; also called Cynomolgus monkey GPC3-CHO; CHO-Cynomolgus monkey GPC3
Description: flow cytometry on CHO-cynomolgus monkey GPC3 stably transfected cells. The procedure: as §1

The target in assay [4] is T1, human GPC3 on cells (CHO-human GPC3 …). In words: flow cytometry on CHO-human GPC3 stably transfected cells. As for the experimental part: as §1
Assay [5] deals with T2, human CD3 on T cells (Jurkat cells; …). Description: flow cytometry on peripheral blood CD8+ T-cells. As for the experimental part:
(§2) Fresh human or cynomolgus monkey peripheral blood was taken and PBMC was isolated by Ficoll. Paque Plus (GE, 17-1440-03). PBMC was adjusted to 5×10⁵ cells/mL with 4% calf serum (Hyclone, SH30626.06), 100 μL/well was added to a 96-well U-plate, the supernatant was centrifuged off and 100 μL of gradient diluted antibody (with starting concentration of 1800 nM, 3-fold dilution, 10 gradients) was added to each well and incubated for 60 min at 4° C. 50 μL/well Alexa Fluro647 labeled goat anti-human IgG Fc (1:300 dilution) was added to secondary antibody, with ice bath for 20 min. 50 μL/well PI was added after washing once and incubated for 5 min, and flow cytometer (BD Celesta) is used to make detection.

For assay [6] the target is unchanged. In words: flow cytometry on peripheral blood CD4+ T-cells. As for the experimental part:
as §2

B1: GPC3 × CD3 κλ002 (bispecific antibody, human IgG4 S228P, kappa, lambda)
light 1: DVVMTQSPLSLPVTPGEPASISCRSSQSIVHSNGNTYLEWYLKKPGQSPQLLIYKVSNRFSGVPDRFSGSGSGTDFTLKISRVEAEDVGVYFCLQVTHVPLTFGQGTKLEIKRTVAAPSVFIFPPSDEQLKSGTASVVCLLNNFYPREAKVQWKVDNALQSGNSQESVTEQDSKDSTYSLSSTLTLSKADYEKHKVYACEVTHQGLSSPVTKSFNRGEC
heavy 1: QVQLVQSGAEVKKPGSSVKVSCKASGYTFADYEIHWVREAPGQGLEWMGAIHPGSGGTAYAQKFQGRVTLTADESSTTAYMELSSLRSEDTAVYYCTRYYSFAYWGQGTLVTVSSASTKGPSVFPLAPCSRSTSESTAALGCLVKDYFPEPVTVSWNSGALTSGVHTFPAVLQSSGLYSLSSVVTVPSSSLGTKTYTCNVDHKPSNTKVDKRVESKYGPPCPPCPAPEFEGGPSVFLFPPKPKDTLMISRTPEVTCVVVDVSQEDPEVQFNWYVDGVEVHNAKTKPREEQFNSTYRVVSVLTVLHQDWLNGKEYKCKVSNKGLASSIEKTISKAKGQPREPQVCTLPPSQEEMTKNQVSLSCAVKGFYPSDIAVEWESNGQPENNYKTTPPVLDSDGSFFLVSKLTVDKSRWQEGNVFSCSVMHEALHNHYTQKSLSLSLGK
light 2: QAVVTQEPSLTVSPGGTVTLTCRSSTGAVTTSNYANWVQEKPGQAPRGLIGGTNKRAPWTPARFSGSLLGGKAALTITGAQAEDEAEYYCVLWYSNLWVFGGGTKLTVLGQPKAAPSVTLFPPSSEELQANKATLVCLISDFYPGAVTVAWKADSSPVKAGVETTTPSKQSNNKYAASSYLSLTPEQWKSHRSYSCQVTHEGSTVEKTVAPTECS
heavy 2: EVQLVESGGGLVQPGGSLRLSCAASGFTFNTYAMNWVRKAPGKGLEWVGRIRSKYNNYATYYADSVKDRFTISRDDSKNSLYLQMNSLKTEDTAVYYCVRHGNFGNSYVSWFAYWGQGTLVTVSSASTKGPSVFPLAPCSRSTSESTAALGCLVKDYFPEPVTVSWNSGALTSGVHTFPAVLQSSGLYSLSSVVTVPSSSLGTKTYTCNVDHKPSNTKVDKRVESKYGPPCPPCPAPEFEGGPSVFLFPPKPKDTLMISRTPEVTCVVVDVSQEDPEVQFNWYVDGVEVHNAKTKPREEQFNSTYRVVSVLTVLHQDWLNGKEYKCKVSNKGLASSIEKTISKAKGQPREPQVYTLPPCQEEMTKNQVSLWCLVKGFYPSDIAVEWESNGQPENNYKTTPPVLDSDGSFFLYSKLTVDKSRWQEGNVFSCSVMHEALHNHYTQKSLSLSLGK
notes: also called GPC3×CD3 κλ bispecific antibody
B1: the 50% effective concentration (EC50) in assay [1] was found to be 2.1 nM; in assay [2] it was 36 nM; in assay [3], 3 nM; in assay [4], 2.8 nM; in assay [5], 65 nM; in assay [6] it was 65 nM.

B2: GPC3 × CD3 κλ003 (bispecific antibody, human IgG4 S228P, kappa, lambda)
light 1: DVVMTQSPLSLPVTPGEPASISCRSSQSIVHSNGNTYLEWYLKKPGQSPQLLIYKVSNRFSGVPDRFSGSGSGTDFTLKISRVEAEDVGVYFCLQVTHVPLTFGQGTKLEIKRTVAAPSVFIFPPSDKKLKSGTASVVCLLNNFYPREAKVQWKVDNALQSGNSQESVTEQDSKDSTYSLSSTLTLSKADYEKHKVYACEVTHQGLSSPVTKSFNRGEC
heavy 1: QVQLVQSGAEVKKPGSSVKVSCKASGYTFADYEIHWVREAPGQGLEWMGAIHPGSGGTAYAQKFQGRVTLTADESSTTAYMELSSLRSEDTAVYYCTRYYSFAYWGQGTLVTVSSASTKGPSVFPLAPCSRSTSESTAALGCLVEDYFPEPVTVSWNSGALTSGVHTFPAVLQSSGLYSLSSVVTVPSSSLGTKTYTCNVDHKPSNTKVDERVESKYGPPCPPCPAPEFEGGPSVFLFPPKPKDTLMISRTPEVTCVVVDVSQEDPEVQFNWYVDGVEVHNAKTKPREEQFNSTYRVVSVLTVLHQDWLNGKEYKCKVSNKGLASSIEKTISKAKGQPREPQVCTLPPSQEEMTKNQVSLSCAVKGFYPSDIAVEWESNGQPENNYKTTPPVLDSDGSFFLVSKLTVDKSRWQEGNVFSCSVMHEALHNHYTQKSLSLSLGK
light 2: QAVVTQEPSLTVSPGGTVTLTCRSSTGAVTTSNYANWVQEKPGQAPRGLIGGTNKRAPWTPARFSGSLLGGKAALTITGAQAEDEAEYYCVLWYSNLWVFGGGTKLTVLGQPKAAPSVTLFPPSSEELQANKATLVCLISDFYPGAVTVAWKADSSPVKAGVETTTPSKQSNNKYAASSYLSLTPEQWKSHRSYSCQVTHEGSTVEKTVAPTECS
heavy 2: EVQLVESGGGLVQPGGSLRLSCAASGFTFNTYAMNWVRKAPGKGLEWVGRIRSKYNNYATYYADSVKDRFTISRDDSKNSLYLQMNSLKTEDTAVYYCVRHGNFGNSYVSWFAYWGQGTLVTVSSASTKGPSVFPLAPCSRSTSESTAALGCLVKDYFPEPVTVSWNSGALTSGVHTFPAVLQSSGLYSLSSVVTVPSSSLGTKTYTCNVDHKPSNTKVDKRVESKYGPPCPPCPAPEFEGGPSVFLFPPKPKDTLMISRTPEVTCVVVDVSQEDPEVQFNWYVDGVEVHNAKTKPREEQFNSTYRVVSVLTVLHQDWLNGKEYKCKVSNKGLASSIEKTISKAKGQPREPQVYTLPPCQEEMTKNQVSLWCLVKGFYPSDIAVEWESNGQPENNYKTTPPVLDSDGSFFLYSKLTVDKSRWQEGNVFSCSVMHEALHNHYTQKSLSLSLGK
notes: Human IgG4 knob-into-hole Fc with Ser228Pro, Leu235Glu, Pro329Ala; also called GPC3×CD3 κλ bispecific antibody
In the case of B2, the EC50 in assay [1] amounted to 2.5 nM; in assay [2], 26 nM; in assay [3] it was 3 nM; in assay [4], 2.9 nM; in assay [5], 69 nM; in assay [6], 56 nM.

(Values after US20250346685A1 (published 2025).)
